Results: patent publication US20050065081A1, “Tyrosine kinase inhibitors” (priority 2002, published 2005)

Tested on: GST-Jun
Assay: Abl in vitro kinase assay of immunoprecipitated Abl proteins, GST-Jun as substrate
Type: biochemical
Details: expressed in HEK293 cells, relative to Abl M1-K531
Procedure: C. Abl protein was immunoprecipitated from total cell extract using anti-Abl antibodies, blotted to nitrocellulose and probed with anti-Abl and anti-phosphotyrosine antibodies (left panels). Abl immunoprecipitates were assayed for catalytic activity by in vitro kinase assay using GST-Jun as substrate.
The catalytic activity of purified Abl protein bound to protein G-Sepharose beads was determined as follows. Beads were washed three times with IP buffer, two times with IP buffer without NaCl and two times with kinase assay buffer (20 mM Tris-HCl pH 7.5, 10 mM MgCl2, 1 mM DTT). Twenty μl linase assay mix (1 μg GST-Crk121-226 (Dorey et al., 1999), 0.5 μl [γ-^32P]-ATP (Amersham), 0.1 mM ATP in kinase assay buffer) was added and the mixture was incubated at room temperature for 10 and 20 minutes. The kinase reaction was stopped by adding SDS-sample buffer and analyzed by SDS-PAGE. Quantification of the reaction was done by cutting the desired bands from gel followed by liquid scintillation counting and/or phosphoimager analysis. For the in vitro inhibition of Abl, GST or GST 1b+2 protein were bacterially expressed, purified and dialysed against kinase assay buffer. Equal quantities of purified proteins were added directly to the kinase assay mixture, samples were incubated for 2 hours at 4° C. and then assayed as above.

Abl M1-K531: deletion mutant lacking the last exon region of c-Abl
Catalytic activity and tyrosine phosphorylation (in words): did not lead to activation

B1: Abl P82-K531: mutant lacking the last exon region and the N-terminal amino acids preceding the SH3 domain (protein, UniProt P00519 82-531, looked up, fragment)
chain: ITKGEKLRVLGYNHNGEWCEAQTKNGQGWVPSNYITPVNSLEKHSWYHGPVSRNAAEYLLSSGINGSFLVRESESSPGQRSISLRYEGRVYHYRINTASDGKLYVSSESRFNTLAELVHHHSTVADGLITTLHYPAPKRNKPTVYGVSPNYDKWEMERTDITMKHKLGGGQYGEVYEGVWKKYSLTVAVKTLKEDTMEVEEFLKEAAVMKEIKHPNLVQLLGVCTREPPFYIITEFMTYGNLLDYLRECNRQEVNAVVLLYMATQISSAMEYLEKKNFIHRDLAARNCLVGENHLVKVADFGLSRLMTGDTYTAHAGAKFPIKWTAPESLAYNKFSIKSDVWAFGVLLWEIATYGMSPYPGIDLSQVYELLEKDYRMERPEGCPEKVYELMRACWQWNPSDRPSFAEIHQAFETMFQESSISDEVEKELGKQGVRGAVSTLLQAPELPTK
modifications: isoform 1B
notes: mutant lacking the last exon region and the N-terminal amino acids preceding the SH3 domain
Catalytic activity and tyrosine phosphorylation (in words): highly active in vitro
